Results reported in patent US20090233993A1, “COMPOSITIONS AND METHODS FOR INHIBITING GSK3 ACTIVITY AND USES THEREOF” (Burnham Institute for Medical Research, priority 2008, published 2009).
Where “and” joins values, the source holds several entries; their conditions need not be identical. Equal entries are not always repeated. Entries after “also recorded” stand apart in the source; their conditions may differ.

Tests used:
3×Tg AD mice = experiment: FG01 transgenic mice crossed with triple transgenic (3×Tg) AD mice, brain analysis; assay type: in vivo, mouse
Excerpt: Brain-specific FG01 transgenic mice were generated using a FG01 expression cassette. FG01 has an N-terminal Myc tag and is driven by the human Thy-1 promoter for neuron-specific expression. A SV40 polyA fragment is linked at the 3′ end for enhancing expression. Genotyping P5 primer was complementary to hThy1 sequence. Genotyping P3 primer was complementary to SV40/Poly A sequence. Reverse transcription primer RT-P5 was complementary to sequence on the 5′ side of the FG01 sequence. Hemizygous FG01 transgenic mice were crossed with homozygous triple transgenic (3×Tg) AD mice harboring mutations in human APP and tau genes on a presenilin 1 (PS1) mutant background (Oddo et al., 2003). Procedures involving animals and their care conformed to institutional guidelines (Animal Resources Department at Burnham Institute for Medical Research).
FG01/3×Tg mice and littermate controls on a 3×Tg background were sacrificed at 11 months of age. Half of the brain was used for immunoblot analysis and the other half was paraffin-embedded for immunohistochemistry. Sagittal brain sections (4 μm) were deparaffinized, hydrated, and then immunostained with anti-Aβ antibody (6E10), anti-phosphorylated tau antibody (PHF-1), or anti-synapsin antibody. After additional incubation with biotinylated secondary antibody, samples were incubated in ABC Elite (HRP) reagent (Vector Laboratories). Reactions were visualized by developing in DAB substrates (Vector Laboratories). All samples were visualized under a light microscope.
FG01 transgenic mice were crossed with triple transgenic (3×Tg) AD mice harboring mutations in human APP, tau and presenilin 1 (PS1) genes (Oddo et al., 2003).

β-catenin [1] = experiment: β-catenin level in human HEK293 cells (Western blot); assay type: cell-based; conditions: FG01 expression
Excerpt: Expression of β-catenin, inactivated phospho-GSK-3β, total GSK-3, APP, β-CTF and FG01 in transfected human HEK293 cells were shown by Western blots.

adenylate cyclases = experiment: co-immunoprecipitation of FG01 with adenylate cyclases; assay type: binding, mouse; conditions: N2a cells overexpressing FG01
Experimental: After 48-72 hrs, cells were lysed and cell lysates were subjected to immunoprecipitation with mouse IgG, rabbit IgG, myc antibody and adenylyl cyclase (AC) antibody (Santa Cruz Biotechnology, catalog number sc-1701), and then immunoblotted with antibodies against adenylyl cyclase (AC) and myc, respectively.
Cells transfected with FG01 were lysed in either CHAPSO buffer (1% CHAPSO, 25 mM HEPES, pH7.4, 150 mM NaCl, and 2 mM EDTA supplemented with protease inhibitors) or in NP40 buffer (1% NP40 in phosphate buffered saline, supplemented with protease inhibitors). Lysates were immunoprecipitated using mouse IgG, rabbit IgG, and antibodies against Myc or adenylate cyclases and Trueblot™ IP beads (eBioscience), followed by Western blot with antibodies against Myc or adenylate cyclases.

tau = tau phosphorylation (Thr205, PHF-1) in N2aSwe cells cotransfected with human tau T40; assay type: cell-based
Experimental: Since GSK-3 can phosphorylate tau at multiple sites, it was determined whether FG01 can affect tau phosphorylation by GSK-3. The human longest tau splicing variant T40 was cotransfected with FG01 or expression vector (control) into N2aSwe cells, and the tau phosphorylation examined at Thr205 and PHF-1 tauepitope (Ser396 and Ser404), which are GSK-3 phosphorylation targets and major paired helical filament (PHF) tau sites found in NFTs. […] In addition, little change was found in CDK5 protein level and its in vitro activity upon FG01 overexpression.
The human tau T40 was co-transfected with either FG01 or the expression vector into N2aSwe cells. The phospho-tau at Thr205 and PHF-1 and total tau proteins in the transfected cells were detected by Western blots (left). The levels of phospho-tau at the examined sites were quantified by densitometry and normalized to the total levels (right).
GSK-3 is a major kinase that phosphorylates tau in AD (Flaherty et al., 2000). […] N2aSwe cells were cotransfected with the human tau splice variant T40 and with FG01 (or control vectors), and examined tau phosphorylation at the threonine 205 site (Thr205) and the PHF-1 tau epitope sites (serine 396 and serine 404), which are GSK-3 phosphorylation targets, and at the major paired helical filament (PHF) sites found in NFTs. […] Protein levels and activity of CDK5, another kinase mediating tau phosphorylation in AD (Flaherty et al., 2000), was analyzed following FG01 overexpression. […] N2a cells were transfected with FG01 or a control vector (Con). Equal cell lysate proteins were used for assaying in vitro CDK5 activity.

APP = APP trafficking to cell surface (biotinylation) in N2a/swe cells; assay type: cell-based, mouse; conditions: FG01-transfected N2a/swe cells
Excerpt: After treated with biotin or DMSO, membrane protein and total cell lysates were subjected to Western blots for APP.

Aβ generation = Aβ generation / APP processing in HeLaSwe cells expressing FG01 (Western blot, ELISA); assay type: cell-based, human
Experimental: Expression of secreted Aβ, sAPPα, β-CTF, total APP, α-tubulin and FG01 were detected by Western blots.
HeLa/swe cells were transfected with GSK-3β and/or FG01 as indicated. The levels of Aβ40/42 were determined by modified ELISA. The expression of GSK-3β and β-catenin were shown by Western blots. n=4.
HeLaSwe cells were transfected with FG01 or controls. Conditioned media and lysates from these cells were collected. The levels of Aβ40 and Aβ42 were quantified using ELISA kits (Invitrogen), following the manufacturer's protocols.
To corroborate this, FG01 was over expressed in N2aSwe cells.

GSK-3β = GSK-3β in vitro kinase activity after immunoprecipitation from N2aSwe cells; assay type: cell-based, mouse; conditions: in vitro kinase assay, FG01-overexpressing N2aSwe cells vs control
Excerpt: The levels of the recombinant Notch (NotchΔE with Myc-tag) and the γ-secretase cleaved Notch fragment (NICD) were quantified by Western blotting using myc antibody and an antibody specific to processed Notch followed by densitometry. […] The results represent at least four independent experiments.
Commercial kits were used to assay in vitro activities of GSK-3β (Sigma) and PKA (Upstate). For GSK-3α activity, a commercial GSK-3β activity assay kit was used but the procedure to immunoprecititate GSK-3β was replaced with immunoprecipitation of GSK-3α using an anti-GSK-3α antibody (Cell Signaling). cAMP levels were assayed using a commercial kit (Biovision).

β-catenin [2] = experiment: β-catenin level in mouse N2a cells (Western blot); assay type: cell-based; conditions: FG01 overexpression
Excerpt: The levels of total GSK-3 were used as normalization factors.

[3] = FG01/3×Tg vs 3×Tg littermates, 11 months
[4] = human tau T40 cotransfected with FG01
[5] = ELISA, HeLaSwe cells, FG01 expression

B1: FG01: 141 amino acid transmembrane protein encoded by mouse retrogene fg01 (SEQ ID NO:2); expressed from transfected vector or transgene (protein)
chain: MQSQQRNIGYFNHLKADSRNITYSMTFSTKSSNQNFIIFLNEVQAAIIGHERCDLLPVLNELHPDALPDGRIWLFGLNPYFFQHNSLCMRGTPKRIGLQGCAQVGFLVLFVMPLLIPSVTAELPGSSETTTLAHLAGATGP
modifications: Myc and His6 tags; homo sapien
notes: expressed from transfected vector or transgene
levels of the synaptic marker PSD-95 (3×Tg AD mice; 3×Tg mouse brains with FG01 overexpression): markedly increased
Aβ generation in brain (3×Tg AD mice; [3]): reduced
GSK-3 activity in brain (3×Tg AD mice; [3]): reduced
PKA activity in brain (3×Tg AD mice; [3]): dramatically increased
tau phosphorylation in brain (3×Tg AD mice; [3]): reduced
number of Aβ-immunostaining-positive neurons (3×Tg AD mice; hippocampus and cortex, immunohistochemistry 6E10): significantly decreased
number of phosphorylated tau-immunostaining-positive neurons (3×Tg AD mice; hippocampus and cortex, immunohistochemistry PHF-1): significantly decreased
synapsin immunostaining (3×Tg AD mice; hippocampus, vs 3×Tg mice without FG01): much higher immunoreactivity
level of β-catenin (β-catenin [1]): increases
interaction with adenylate cyclases (adenylate cyclases): interacts
total tau levels (tau; [4]): without affecting
unphosphorylated tau levels (tau; [4]): increased
tau phosphorylation at GSK-3 target sites (tau; human tau T40 cotransfected with FG01 in N2aSwe cells): significantly decreased
decrease of tau phosphorylation at Thr205 and PHF-1 epitope (Ser396, Ser404) (tau; human tau T40 cotransfected with FG01 in N2aSwe cells, densitometry): ~60%
APP trafficking to cell surface (APP): stimulates
Aβ40 level (Aβ generation; [5]): significantly reduced
Aβ42 level (Aβ generation; [5]): significantly reduced
effects of overexpression of GSK-3β on Aβ production (Aβ generation; HeLa/swe cells transfected with GSK-3β and/or FG01, Aβ40/42 ELISA): suppressed
Aβ levels / Aβ generation (Aβ generation; mouse FG01 expressed in HeLa cells with APP Swedish mutant): decreases; also recorded: reduced Aβ generation
accumulation of sAPPα (Aβ generation; mouse FG01 in HeLaSwe cells): increased accumulation
accumulation of βCTF (Aβ generation; mouse FG01 in HeLaSwe cells): increased accumulation
decrease in GSK-3β activity (GSK-3β): ~30% and 40%
level of β-catenin (β-catenin [2]): increases
